Measured values from publication PMC11381518, “Human cell surface-AAV interactomes identify LRP6 as blood-brain barrier transcytosis receptor and immune cytokine IL3 as AAV9 binder” (Nature Communications, 2024).

Tests used:
Conditions in all cases: both partners purified
AAV9 capsid = target: T1, AAV9 capsid (adeno-associated virus 9, UniProt Q6JC40 1-736); assay: pull-down; prey AAVs mixed with His-tagged bait protein and Ni-NTA resin in DPBS with 20 mM imidazole, 1 h at 4 °C; eluate analysed by Western blot with anti-VP1/VP2/VP3 and anti-6xHis
T1 construct: AAV9 capsid protein VP1; numbers count on VP1; Assembled capsid with a packaged genome; also called AAV9 (parent of vectors below); source: HEK293 cells, triple transfected, purified (iodixanol gradient); copies: 60

AAV.CAP-Mac capsid [1] = target: T2, AAV.CAP-Mac capsid (adeno-associated virus 9, UniProt Q6JC40 1-736, VR VIII AA587-590 AQ - - - - - - - AQ to AQLNTTKPIAQ); assay: as above
T2 construct: AAV9 capsid protein VP1 with an insertion in VR-VIII; numbers count on VP1; source: HEK293 cells, triple transfected, purified (iodixanol gradient); copies: 60

AAV9-X1.1 capsid [2] = target: T3, AAV9-X1.1 capsid (adeno-associated virus 9, UniProt Q6JC40 1-736, VR IV AA452-458 NGSGQNQ to DGAATKN | VR VIII AA587-590 AQ - - - - - - - AQ to …); assay: as above
T3 construct: AAV9 capsid protein VP1 with changes in VR-IV and VR-VIII; numbers count on VP1; also called AAV-X1.1; source: HEK293 cells, triple transfected, purified (iodixanol gradient); copies: 60

AAV.CAP-Mac capsid [3] = target: T2, AAV.CAP-Mac capsid; assay: SPR; Sierra SPR-32, protein A sensor chip; Fc-fusion protein captured at 600-800 RU in HBS-EP+; AAV injected at 10 µL per min for 240 s, 600 s dissociation; AAV from 2.4 × 10^12 v.g. per mL in twofold dilutions; avid format
AAV9-X1.1 capsid [4] = target: T3, AAV9-X1.1 capsid; assay: as above
AAV-BI30 capsid = target: T4, AAV-BI30 capsid (adeno-associated virus 9, UniProt Q6JC40 1-736, VR VIII AA587-590 AQ - - - - - - - AQ to AQNNSTRGGAQ); assay: as above
T4 construct: AAV9 capsid protein VP1 with an insertion in VR-VIII; numbers count on VP1; source: HEK293 cells, triple transfected, purified (iodixanol gradient); copies: 60

Measured: binding result

B1: human Adeno-Associated Virus Receptor (AAVR) PKD2 domain (AA 401-498) tagged with 6xHis (domain or fragment)
chain: EPRKNRPPIAIVSPQFQEISLPTTSTVIDGSQSTDDDKIVQYHWEELKGPLREEKISEDTAILKLSKLVPGNYTFSLTVVDSDGATNSTTANLTVNKA
notes: human AAVR (KIAA0319L), PKD2 domain, AA 401-498; source: E. coli BL21(DE3)-RIPL, purified (Ni-NTA)
binds: AAV9 capsid | AAV.CAP-Mac capsid [1] | AAV9-X1.1 capsid [2]

B2: mouse LRP6-E1E2 (N-half of the extracellular domain, AA 20-628) tagged with mouse IgG2a Fc (Fc fusion, UniProt O88572 20-628, looked up)
chain: APLLLYANRRDLRLVDATNGKENATIVVGGLEDAAAVDFVFGHGLIYWSDVSEEAIKRTEFNKSESVQNVVVSGLLSPDGLACDWLGEKLYWTDSETNRIEVSNLDGSLRKVLFWQELDQPRAIALDPSSGFMYWTDWGEVPKIERAGMDGSSRFVIINTEIYWPNGLTLDYQERKLYWADAKLNFIHKSNLDGTNRQAVVKGSLPHPFALTLFEDTLYWTDWNTHSILACNKYTGEGLREIHSNIFSPMDIHAFSQQRQPNATNPCGIDNGGCSHLCLMSPVKPFYQCACPTGVKLMENGKTCKDGATELLLLARRTDLRRISLDTPDFTDIVLQLEDIRHAIAIDYDPVEGYIYWTDDEVRAIRRSFIDGSGSQFVVTAQIAHPDGIAVDWVARNLYWTDTGTDRIEVTRLNGTMRKILISEDLEEPRAIVLDPMVGYMYWTDWGEIPKIERAALDGSDRVVLVNTSLGWPNGLALDYDEGTIYWGDAKTDKIEVMNTDGTGRRVLVEDKIPHIFGFTLLGDYVYWTDWQRRSIERVHKRSAEREVIIDQLPDLMGLKATSVHRVIGSNPCAEDNGGCSHLCLYRPQGLRCACPIGFELIGDMKTCI
notes: mouse LRP6, YWTD domains 1 and 2 (E1E2), AA 20-628; source: bought: Bio-Techne
binds: AAV.CAP-Mac capsid [3] | AAV9-X1.1 capsid [4] | AAV-BI30 capsid
